Data on 5 molecules can be found in US7939631B2, “APO-2 receptor polypeptides” (Genentech, Inc., priority 1997, dated 2011).

Square brackets hold non-standard residues; d marks the D form. Peptide text beside a SMILES is read from it. Nle = CCCC[C@H](N)C(=O)O

Test [1] concerns HeLa cells transfected with Apo-2. The format is cell-based, human.
For the next test, the target named is T1, lymphotoxin-alpha (Homo sapiens, UniProt P01374).
T1 sequence (P01374 35-205): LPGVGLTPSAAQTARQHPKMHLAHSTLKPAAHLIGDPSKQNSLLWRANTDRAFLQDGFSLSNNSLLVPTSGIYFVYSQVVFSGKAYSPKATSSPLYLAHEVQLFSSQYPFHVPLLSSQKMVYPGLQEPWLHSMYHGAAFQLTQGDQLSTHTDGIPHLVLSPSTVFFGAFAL
Briefly: BIACORE analysis of purified Apo-2 ECD. It counts as binding. From the text:
(§1) The binding interaction was further analyzed by purifying Apo-2 ECD from the transfected 293 cell supernatants with anti-Flag beads (see Example 2) and then analyzing the samples on a BIACORE™ instrument.

Another test concerns the target TNF-alpha (Homo sapiens, UniProt P01375). The test can be described thus: BIACORE analysis of purified Apo-2 ECD. The format is binding.
Source text: as §1

In a further test the target is T2, Fas/Apo-1 ligand (Homo sapiens, UniProt P48023).
T2 construct: purchased Alexis Biochemicals
T2 sequence (P48023 103-281 limits assumed): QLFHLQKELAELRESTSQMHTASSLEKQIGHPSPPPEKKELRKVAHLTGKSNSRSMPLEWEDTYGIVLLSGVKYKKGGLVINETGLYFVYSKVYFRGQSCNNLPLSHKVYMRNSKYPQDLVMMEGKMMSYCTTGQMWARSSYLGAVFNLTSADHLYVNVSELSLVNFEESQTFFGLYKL
Briefly: BIACORE analysis of purified Apo-2 ECD. It counts as binding.
Source text: as §1
(In general: In SPR one partner is held on a chip, and binding of the other changes the refractive index at the surface.)

Test [2] concerns the target T3, Apo-2L (Homo sapiens, UniProt P50591).
T3 construct: poly-histidine; made in house
Briefly: Inhibition of Apo-2L activity by soluble Apo-2 ECD, apoptosis by FACS. The format is cell-based. Conditions: Apo-2L 0.5 μg/ml pre-incubated 1 hour; Apo-2 ECD 5 μg/ml with anti-Flag antibody 1 μg/ml; FIG. 4D. As to the method:
After a 5 hour incubation, the cells were analyzed for apoptosis by FACS (as above) (FIG. 4D).
Target sequence in this assay (P50591 114-281 limits assumed): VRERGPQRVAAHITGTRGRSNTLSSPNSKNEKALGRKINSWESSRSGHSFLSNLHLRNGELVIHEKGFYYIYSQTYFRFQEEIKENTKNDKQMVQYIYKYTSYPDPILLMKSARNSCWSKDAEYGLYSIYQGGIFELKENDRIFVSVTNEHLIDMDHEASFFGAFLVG
For orientation: A flow cytometer gives signals particle by particle.

Test [3] addresses T3, Apo-2L. The test can be described thus: Co-precipitation (immunoprecipitation) assay of Apo-2 ECD-Flag with His-tagged Apo-2L. The format is binding. As to conditions: 293 cell supernatant with Apo-2 ECD-Flag, 5 μg poly-histidine-tagged soluble Apo-2L; FIG. 3. The protocol:
The samples were subjected to immunoprecipitation using 25 μl anti-Flag conjugated agarose beads (Sigma) or Nickel-conjugated agarose beads (Qiagen). After a 1.5 hour incubation at 4° C., the beads were spun down and washed four times in phosphate buffered saline (PBS). […] The precipitated proteins were released by boiling the beads for 5 minutes in SDS-PAGE buffer, resolved by electrophoresis on 12% polyacrylamide gels, and then detected by immunoblot with anti-Apo-2L or anti-Flag antibody (2 μg/ml) as described in Marsters et al., J. Biol. Chem., (1997).
Target sequence in this assay (P50591 39-281 limits assumed): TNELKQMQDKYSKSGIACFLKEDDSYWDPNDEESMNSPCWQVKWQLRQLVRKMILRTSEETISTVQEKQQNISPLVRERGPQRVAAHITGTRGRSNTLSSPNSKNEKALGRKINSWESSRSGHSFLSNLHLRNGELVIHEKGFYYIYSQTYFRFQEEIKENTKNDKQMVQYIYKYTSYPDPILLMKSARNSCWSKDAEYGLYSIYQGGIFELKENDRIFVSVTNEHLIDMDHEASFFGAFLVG

The next test relates to HeLa cells. The format is cell-based, human. Conditions: 5 hour.

Sequence of TNF-alpha (P01375 77-233 limits assumed): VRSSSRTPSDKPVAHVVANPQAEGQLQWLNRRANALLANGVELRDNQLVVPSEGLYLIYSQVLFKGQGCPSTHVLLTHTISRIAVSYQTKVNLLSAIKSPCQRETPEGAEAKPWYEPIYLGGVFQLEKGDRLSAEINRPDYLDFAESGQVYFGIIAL

In the case of z-VAD-fmk, the “effect on apoptosis induction by Apo-2” value in test [1] is on record as “blocked apoptosis induction by Apo-2”.
Take “Apo-2 ECD: Soluble Apo-2 extracellular domain (amino acid residues 1-184 of FIG. 1) fused to a C-terminal Flag epitope tag”: the binding to lymphotoxin-alpha result in the test with lymphotoxin-alpha was “not capable of binding”. For the same molecule, in the test with TNF-alpha, the “binding to TNF-alpha” value is “not capable of binding”. For the same molecule, the “binding to Fas/Apo-1 ligand” value in the test with Fas/Apo-1 ligand is given as “not capable of binding”. Moreover, in the test with Apo-2L [2], the “blocking of Apo-2L action (apoptosis in HeLa cells)” value is given as “capable of blocking Apo-2L action”. In the test with Apo-2L [3], the “complex formation with Apo-2L by co-precipitation” value was “can associate with each other”.
Turning to cyclohexamide, in the test on HeLa cells, the “effect on level of Apo-2L-induced apoptosis” value is “increased the level of Apo-2L-induced apoptosis”.
Consider DEVD-fmk, for which, in test [1], the “effect on apoptosis induction by Apo-2” value is reported as “blocked apoptosis induction by Apo-2”.
As to `CCCC[C@@H](C=O)NC(=O)[C@H](CC(C)C)NC(=O)[C@H](CC(C)C)NC(C)=O` [ALLN, N-acetyl-Leu-Leu-norleucinal] (Ac-Leu-Leu-[Nle]-aldehyde), the “effect on level of Apo-2L-induced apoptosis” value with HeLa cells was “increased the level of Apo-2L-induced apoptosis”.
